The values below come from PMC4191155, “FaPOD27 functions in the metabolism of polyphenols in strawberry fruit (Fragaria sp.)” (Frontiers in Plant Science, 2014).

As usually defined, the Km is the substrate concentration at which the rate is half of its maximum. As usually defined, the kcat/Km is the second-order rate constant that governs catalysis at low substrate concentration.

The target of one series is T1, FaCAD (Fragaria x ananassa, UniProt J7IAL0).
T1 construct: full-length ORF 1077 bp, 359 aa, 39 kDa; pYES2 in S. cerevisiae INVSc1, crude protein
T1 sequence (J7IAL0 1-359): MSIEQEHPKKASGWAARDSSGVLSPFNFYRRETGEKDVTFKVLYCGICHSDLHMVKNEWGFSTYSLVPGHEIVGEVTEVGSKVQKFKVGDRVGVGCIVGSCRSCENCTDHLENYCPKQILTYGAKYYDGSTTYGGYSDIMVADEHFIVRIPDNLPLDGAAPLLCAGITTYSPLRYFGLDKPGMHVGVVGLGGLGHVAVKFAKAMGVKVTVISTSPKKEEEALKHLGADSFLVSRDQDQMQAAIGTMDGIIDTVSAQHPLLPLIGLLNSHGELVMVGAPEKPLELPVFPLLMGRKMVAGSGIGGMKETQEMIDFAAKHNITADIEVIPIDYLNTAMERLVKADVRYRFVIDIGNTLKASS
The experiment in a line: LC-UV-ESI-MSn product identification. The settings on record: NADPH 200 μM, coniferaldehyde 100 μM, sodium phosphate pH 6.5, 30 °C; crude yeast protein. The series is classed as biochemical.

The next series has as its target T2, FaPOD27 (Fragaria x ananassa, UniProt J7IER7).
T2 construct: GST fusion, E. coli, crude protein
T2 sequence (J7IER7 1-329): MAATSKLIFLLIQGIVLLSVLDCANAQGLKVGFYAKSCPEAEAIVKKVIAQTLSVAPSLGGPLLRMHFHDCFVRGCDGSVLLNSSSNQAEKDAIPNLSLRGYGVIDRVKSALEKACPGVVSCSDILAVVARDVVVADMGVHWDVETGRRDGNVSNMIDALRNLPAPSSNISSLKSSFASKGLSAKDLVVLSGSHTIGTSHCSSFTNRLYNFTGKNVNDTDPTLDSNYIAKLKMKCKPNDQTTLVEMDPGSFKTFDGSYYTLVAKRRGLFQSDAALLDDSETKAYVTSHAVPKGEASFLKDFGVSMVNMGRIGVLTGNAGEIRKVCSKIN
The experiment in a line: LC-UV-ESI-MSn product identification. The series is classed as biochemical. The settings on record: H2O2, sodium tartrate pH 3.5, room temperature; crude E. coli protein.

Substrate in series [1]: CC(C)(COP(=O)(O)OP(=O)(O)OC[C@H]1O[C@@H](n2cnc3c(N)ncnc32)[C@H](O)[C@@H]1OP(=O)(O)O)[C@@H](O)C(=O)NCCC(=O)NCCSC(=O)/C=C/c1ccc(O)c(O)c1
As to the kind of experiment: spectrophotometric CCR assay. Format: biochemical, Fragaria x ananassa. The settings on record: NADPH, sodium phosphate, pH optimum 6, 25 °C, apparent Km. The source says: (§1) spectrophotometric CCR assay on GST-FaCCR

Substrate in series [2]: CC(C)(COP(=O)(O)OP(=O)(O)OC[C@H]1O[C@@H](n2cnc3c(N)ncnc32)[C@H](O)[C@@H]1OP(=O)(O)O)[C@@H](O)C(=O)NCCC(=O)NCCSC(=O)/C=C/c1ccc(O)cc1
As to the kind of experiment: spectrophotometric CCR assay. Format: biochemical, Fragaria x ananassa. The settings on record: NADPH, sodium phosphate, pH optimum 6, 25 °C, apparent Km.
Description: as §1

Substrate in series [3]: COc1cc(/C=C/C(=O)SCCNC(=O)CCNC(=O)[C@H](O)C(C)(C)COP(=O)(O)OP(=O)(O)OC[C@H]2O[C@@H](n3cnc4c(N)ncnc43)[C@H](O)[C@@H]2OP(=O)(O)O)ccc1O
The experiment in a line: spectrophotometric CCR assay. The settings on record: NADPH, sodium phosphate, pH optimum 6, 25 °C, apparent Km. The series is classed as biochemical, Fragaria x ananassa.
Description: as §1

Turning to `COc1cc(/C=C/C=O)ccc1O` [coniferaldehyde], the LC-UV-ESI-MSn product identification entry at FaCAD was “FaCAD was expressed in yeast cells and showed that coniferyl alcohol was generated”.

As for `COc1cc(/C=C/C(=O)O)ccc1O` [ferulic acid], the LC-UV-ESI-MSn product identification entry at FaPOD27 is “ferulic acid and coniferyl alcohol were almost completely oxidized in the presence of H2O2”.

With `COc1cc(/C=C/CO)ccc1O` [coniferyl alcohol], on FaPOD27, the LC-UV-ESI-MSn product identification result was “ferulic acid and coniferyl alcohol were almost completely oxidized in the presence of H2O2”.

B1: GST-FaCCR (Fragaria x ananassa) (protein)
chain: MPVDNCSSLSGHGQTVCVTGAGGFFASWLVKLLLERGYNVRGTVRNPEDPKNAHLRELEGAKERLSLRKADLLDFESLKEAINGCDGVFHTASPVTDDPEQMVEPAVNGTKNVIVAAAEAKVKRVVFTSSIGAVYMDPARGPDVVVDESCWSDLEFCKNTKNWYCYGKAVAEQAAWEEAKERGVDLVVVNPVLVLGPLLQPTINASIIHILKYLTGSAKTYANSVQAYVHVKDVALAHILVYETPSASGRYLCAESVLHRGDVVEILAKFFPEYPIPSKLKDDGKPRAIPYKFSNQKLQDLGLEFTSVKQSLYDTVKSLQEKGHLKVPTKQEEDSFKIQ
As for B1, the Km in series [1] turned out to be 25.48 ± 0.82 µM; in series [2] it was 24.75 ± 1.23 µM; in series [3], 16.11 ± 1.39 µM. Besides, the kcat/Km in series [1] is 1.15 M⁻¹ s⁻¹; in series [2] it was 1.07 M⁻¹ s⁻¹; in series [3], 145 M⁻¹ s⁻¹.
